# Data: publication PMC10953500 (2024)
# B1: COVA2-15 monomeric IgA2 (antibody)
# chain 1: QVQLLESGGGLVQPGGSLRLSCAASGFTFSSYAMSWVRQAPGKGLEWASAISGSGGSTYYADSVEGRFTISRDNSKNTLYLQMNSLRAEDTAVYYCAKDTGYCGDDCYIKLIRGGPDYWGQGTLVTVSS
# chain 2: DIVMTQSPLSLPVTLGQPASISCRSSQSLVYSDGNTFLNWFQQRPGQSPRRLIYQVSNRDSGVPDRFSGSGSGTDFTLKISRVEAEDVGVYYCMQGTHWPRTFGQGTKLEIK
# Assays:
# [1] = target: recombinant CD89 (Fc-alpha receptor, FcαRI) with C-terminal His-tag (UniProt P24071 22-227); assay: SPR
# [2] = target: receptor binding domain (RBD) of the SARS-CoV-2 spike protein with C-terminal 6xHis-tag (SARS-CoV-2, UniProt P0DTC2 319-541); assay: SPR
# Sequence of recombinant CD89 (Fc-alpha receptor, FcαRI) with C-terminal His-tag (P24071 22-227): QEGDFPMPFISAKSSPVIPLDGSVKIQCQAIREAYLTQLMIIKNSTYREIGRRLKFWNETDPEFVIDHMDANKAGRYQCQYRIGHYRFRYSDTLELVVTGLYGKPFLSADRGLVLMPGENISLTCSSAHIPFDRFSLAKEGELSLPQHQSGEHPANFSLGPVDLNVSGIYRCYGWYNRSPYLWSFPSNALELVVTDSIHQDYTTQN
binder,measurement,setting,value
B1,Kd,[1],35.7 nM
same,Kd,[2],1.56 nM
